Results as given in patent US20070196354A1, “Method of treating diabetes by inhibiting degradation of at least one of crebl1, atf6, and hnf-4 alpha by htra” (priority 2003, published 2007).

T1: CREBL1 (Homo sapiens, UniProt Q99941)
T1 construct: expressed in transfected cells; host or cells: HEK293T
T1 sequence (Q99941 1-703): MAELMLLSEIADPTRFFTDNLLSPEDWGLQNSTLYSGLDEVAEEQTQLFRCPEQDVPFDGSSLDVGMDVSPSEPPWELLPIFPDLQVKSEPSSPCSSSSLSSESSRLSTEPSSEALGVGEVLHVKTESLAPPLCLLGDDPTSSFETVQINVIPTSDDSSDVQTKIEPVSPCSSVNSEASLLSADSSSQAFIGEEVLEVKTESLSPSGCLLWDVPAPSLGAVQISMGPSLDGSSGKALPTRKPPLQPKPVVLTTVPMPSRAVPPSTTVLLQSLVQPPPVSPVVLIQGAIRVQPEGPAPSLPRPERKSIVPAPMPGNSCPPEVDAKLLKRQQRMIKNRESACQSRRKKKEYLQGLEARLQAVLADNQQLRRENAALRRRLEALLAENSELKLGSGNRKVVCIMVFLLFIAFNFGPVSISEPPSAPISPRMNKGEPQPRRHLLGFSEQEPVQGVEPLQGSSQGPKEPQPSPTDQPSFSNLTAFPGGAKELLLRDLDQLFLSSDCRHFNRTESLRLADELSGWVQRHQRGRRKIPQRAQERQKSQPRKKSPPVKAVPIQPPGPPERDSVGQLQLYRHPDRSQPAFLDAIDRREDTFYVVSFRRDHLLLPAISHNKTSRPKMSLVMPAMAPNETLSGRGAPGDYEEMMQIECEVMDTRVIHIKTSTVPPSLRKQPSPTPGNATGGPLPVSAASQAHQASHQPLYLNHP

T2: ATF6 (Homo sapiens, UniProt P18850)
T2 construct: expressed in transfected cells; host or cells: HEK293T
T2 sequence (P18850 1-670): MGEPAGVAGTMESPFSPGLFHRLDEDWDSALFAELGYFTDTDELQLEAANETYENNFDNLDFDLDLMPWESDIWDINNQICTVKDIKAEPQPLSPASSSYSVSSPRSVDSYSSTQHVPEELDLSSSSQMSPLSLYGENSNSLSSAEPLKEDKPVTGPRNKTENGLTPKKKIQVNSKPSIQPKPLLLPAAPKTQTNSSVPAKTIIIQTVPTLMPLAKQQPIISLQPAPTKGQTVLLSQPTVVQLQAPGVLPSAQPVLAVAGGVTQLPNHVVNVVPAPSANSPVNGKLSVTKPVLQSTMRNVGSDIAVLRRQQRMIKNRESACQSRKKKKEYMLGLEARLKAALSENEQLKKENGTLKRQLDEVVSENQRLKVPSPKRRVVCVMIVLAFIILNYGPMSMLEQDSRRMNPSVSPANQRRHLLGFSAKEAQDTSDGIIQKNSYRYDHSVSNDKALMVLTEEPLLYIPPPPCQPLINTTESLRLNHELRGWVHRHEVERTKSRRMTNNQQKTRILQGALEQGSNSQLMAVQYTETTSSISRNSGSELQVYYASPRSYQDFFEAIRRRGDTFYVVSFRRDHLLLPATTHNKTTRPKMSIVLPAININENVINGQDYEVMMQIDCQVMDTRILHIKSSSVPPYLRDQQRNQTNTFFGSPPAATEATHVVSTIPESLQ

T3: HNF-4α (Homo sapiens, UniProt P41235)
T3 construct: expressed in transfected cells; host or cells: HEK293T
T3 sequence (P41235 10-474): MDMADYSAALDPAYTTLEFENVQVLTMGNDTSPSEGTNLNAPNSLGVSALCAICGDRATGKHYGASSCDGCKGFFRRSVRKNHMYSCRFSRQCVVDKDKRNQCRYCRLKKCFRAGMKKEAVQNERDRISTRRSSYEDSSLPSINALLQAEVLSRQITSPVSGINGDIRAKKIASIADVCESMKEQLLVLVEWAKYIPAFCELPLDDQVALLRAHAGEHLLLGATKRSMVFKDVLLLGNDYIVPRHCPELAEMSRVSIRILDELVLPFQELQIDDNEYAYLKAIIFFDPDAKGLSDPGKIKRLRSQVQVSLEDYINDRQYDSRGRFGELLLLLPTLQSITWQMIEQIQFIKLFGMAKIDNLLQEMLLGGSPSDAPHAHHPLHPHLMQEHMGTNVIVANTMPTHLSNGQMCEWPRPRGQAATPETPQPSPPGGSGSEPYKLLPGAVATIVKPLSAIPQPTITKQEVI

B1: mature HtrA2 (S306A, ΔAVPS): SEQ ID NO: 12; mature HtrA2 (S306A) lacking the N-terminal four amino acid residues (AVPS) (protein)
chain: MPPPASPRSQYNFIADVVEKTAPAVVYIEILDRHPFLGREVPISNGSGFVVAADGLIVTNAHVVADRRRVRVRLLSGDTYEAVVTAVDPVADIATLRIQTKEPLPTLPLGRSADVRQGEFVVAMGSPFALQNTITSGIVSSAQRPARDLGLPQTNVEYIQTDAAIDFGNAGGPLVNLDGEVIGVNTMKVTAGISFAIPSDRLREFLHRGEKKNSSSGISGSQRRYIGVMMLTLSPSILAELQLREPSFPDVQHGVLIHKVILGSPAHRAGLRPGDVILAIGEQMVQNAEDVYEAVRTQSQLAVQIRRGRETLTLYVTPEVTE
modifications: Polypeptide consisting of the same amino acid sequence of SEQ ID NO6 wherein the amino acid residues from the 2nd to the 5th are deleted; mature HtrA2(S306A, delta AVPS)
B2: mature HtrA2 (S306A, GVPS): SEQ ID NO: 14; mature HtrA2 (S306A) with N-terminal alanine substituted with glycine (protein)
chain: MGVPSPPPASPRSQYNFIADVVEKTAPAVVYIEILDRHPFLGREVPISNGSGFVVAADGLIVTNAHVVADRRRVRVRLLSGDTYEAVVTAVDPVADIATLRIQTKEPLPTLPLGRSADVRQGEFVVAMGSPFALQNTITSGIVSSAQRPARDLGLPQTNVEYIQTDAAIDFGNAGGPLVNLDGEVIGVNTMKVTAGISFAIPSDRLREFLHRGEKKNSSSGISGSQRRYIGVMMLTLSPSILAELQLREPSFPDVQHGVLIHKVILGSPAHRAGLRPGDVILAIGEQMVQNAEDVYEAVRTQSQLAVQIRRGRETLTLYVTPEVTE
modifications: Polypeptide consisting of the same amino acid sequence of SEQ ID NO6 wherein the 2nd amino acid residue is substituted by Gly; mature HtrA2(S306A, GVPS)
notes: mature HtrA2 (S306A) with N-terminal alanine substituted with glycine

How the values were obtained:
casein = experiment: Casein zymography and protease assay with casein sodium; type: biochemical; details: HtrA2 types expressed in a cultured cell
Method: Determination of the activity of mature HtrA2 and mature HtrA2 (S306A) was carried out with casein zymography and with a protease assay with casein sodium. Casein zymography was carried out according to the protocol (Invitrogen). More concretely, mature HtrA2 and mature HtrA2 (S306A) were mixed under non-reductive condition with equivalent volume of 2×SDS sample buffer, left to stand at room temperature for 10 min, followed by separation with 4-16% zymogram (Blue casein) gel (Zymogram Gel, Invitrogen). After completion of electrophoresis, they were renatured with 2.5% Triton X-100, and then subjected to a degradation reaction of casein in the developing buffer at 37= C. for overnight.
Meanwhile, a protease assay using casein sodium as an substrate was carried out in such that mature HtrA2 or mature HtrA2 (S306A) was mixed with casein sodium in a reaction buffer (150 mM NaCl, 50 mM Tris-HCl (pH 7.5)) so as to the concentration of the former might become 200 μg/ml and the concentration of the latter might become 400 μg/ml, and incubated at 37° C. for reactions. A portion of the reaction solution was sampled at three hours and overnight after initiation of the reaction, mixed with equivalent volume of 2×SDS sample buffer followed by boiling, and then subjected to SDS-PAGE. After that, the degradation of casein sodium was detected by Coomassie Brilliant Blue (CBB) staining.
The enzyme activity of the various types of HtrA2 each of which was expressed in a cultured cell was determined by the protease assay using casein sodium as a substrate (see Example 2).

CREBL1 = biological target: T1, CREBL1; experiment: Intracellular protease assay, co-expression with CREBL1 in HEK293T cells; type: cell-based; details: 48 hours
Method: (§1) HEK293T cells were cultured to 1.5×10^5 cells/10 cm Dish. Next day, the expression plasmid of CREBL1 or ATF6 was transfected into HEK293T cells together with the expression plasmid of various types of HtrA2 using FuGene 6 (Roche). Each of the expression plasmid of various HtrA2 at 1 μg/Dish was added in combination with CREBL1 expression plasmid or ATF6 expression plasmid at 1 μg/Dish. Forty eight hours later, the cells in which the various types of HtrA2 were co-expressed with CREBL1 or ATF6 were added with 200 μl of lysis buffer B and an equivalent volume of 2×SDS sample buffer (containing 0.1% β-mercaptoethanol), and then subjected to sonication followed by boiling to use as a test sample.
(§2) Expression of CREBL1 and ATF6 and the degradation of these proteins were detected by western blotting using 10 μl of the test sample thus obtained. Anti-c-Myc (9E10) antibody was used as a primary antibody for detection, and horseradish peroxidase (HRP) conjugated anti-mouse IgG antibody (Cell Signaling) was used as a secondary antibody. Detection was carried out using ECL Western Blotting Detection System.

ATF6 = biological target: T2, ATF6; experiment: Intracellular protease assay, co-expression with ATF6 in HEK293T cells; type: cell-based; details: 48 hours
Method: as §1, §2

HNF-4α = biological target: T3, HNF-4α; experiment: Intracellular protease assay, co-expression with HNF-4α in HEK293T cells; type: cell-based; details: 48 hours
Method: as §1, with “cells/6” for “cells/10”, “HNF-4α” for “CREBL1 or ATF6”, “HNF-4α” for “CREBL1 expression plasmid or ATF6”
Expression of HNF-4α and the degradation of HNF-4α were detected by western blotting using 10 μl of the test sample thus obtained. Anti-FLAG antibody (Sigma) was used as a primary antibody for detection, and horseradish peroxidase (HRP) labeled anti-mouse IgG antibody (Cell Signaling) was used as a secondary antibody. Detection was carried out using ECL Western Blotting Detection System.

| Molecule | protease activity using casein sodium as a substrate (casein) | degradation of CREBL1 in cells (band by western blotting) (CREBL1) | degradation of ATF6 in cells (band by western blotting) (ATF6) | degradation of HNF-4α in cells (band by western blotting) (HNF-4α) |
| --- | --- | --- | --- | --- |
| B1 | inactive type without exhibiting protease activity | the reduction of the band of CREBL1 was not observed | the reduction of the band of ATF6 was not observed | the reduction of the band of HNF-4α was not observed |
| B2 | inactive type without exhibiting protease activity | the reduction of the band of CREBL1 was not observed | the reduction of the band of ATF6 was not observed | the reduction of the band of HNF-4α was not observed |
